The test has as its target T1, Mouse His6-p110β(1-1064) (mouse, UniProt Q8BTI9 1-1064).
T1 construct: p110β catalytic subunit of class IA PI3K, mouse, residues 1-1064 (full length); N-terminal extension from pFastBac-HTb printed as [residues removed]; (His6 tag and TEV site); this molecule is used there; also called full-length mouse p110β; p110β catalytic subunit; source: Sf9 cells, recombinant baculoviruses, coinfected with the regulatory subunit; complex purified (HisTrap, Q-Sepharose, …)
Description: crystal structure; mouse His6-p110β(1-1064)/p85β-icSH2(423-722) complex at 4 mg/ml with 20 mM sodium phenyl phosphate and 150 μM GDC0941; 12% PEG 3350, 0.1 M potassium citrate pH 6, 0.4 M lithium sulfate, 22°C; 3.3 Å; one 1:1 complex in the asymmetric unit. Particulars: both partners purified.

T1 sequence (Q8BTI9 whole entry, the tested form may be a part): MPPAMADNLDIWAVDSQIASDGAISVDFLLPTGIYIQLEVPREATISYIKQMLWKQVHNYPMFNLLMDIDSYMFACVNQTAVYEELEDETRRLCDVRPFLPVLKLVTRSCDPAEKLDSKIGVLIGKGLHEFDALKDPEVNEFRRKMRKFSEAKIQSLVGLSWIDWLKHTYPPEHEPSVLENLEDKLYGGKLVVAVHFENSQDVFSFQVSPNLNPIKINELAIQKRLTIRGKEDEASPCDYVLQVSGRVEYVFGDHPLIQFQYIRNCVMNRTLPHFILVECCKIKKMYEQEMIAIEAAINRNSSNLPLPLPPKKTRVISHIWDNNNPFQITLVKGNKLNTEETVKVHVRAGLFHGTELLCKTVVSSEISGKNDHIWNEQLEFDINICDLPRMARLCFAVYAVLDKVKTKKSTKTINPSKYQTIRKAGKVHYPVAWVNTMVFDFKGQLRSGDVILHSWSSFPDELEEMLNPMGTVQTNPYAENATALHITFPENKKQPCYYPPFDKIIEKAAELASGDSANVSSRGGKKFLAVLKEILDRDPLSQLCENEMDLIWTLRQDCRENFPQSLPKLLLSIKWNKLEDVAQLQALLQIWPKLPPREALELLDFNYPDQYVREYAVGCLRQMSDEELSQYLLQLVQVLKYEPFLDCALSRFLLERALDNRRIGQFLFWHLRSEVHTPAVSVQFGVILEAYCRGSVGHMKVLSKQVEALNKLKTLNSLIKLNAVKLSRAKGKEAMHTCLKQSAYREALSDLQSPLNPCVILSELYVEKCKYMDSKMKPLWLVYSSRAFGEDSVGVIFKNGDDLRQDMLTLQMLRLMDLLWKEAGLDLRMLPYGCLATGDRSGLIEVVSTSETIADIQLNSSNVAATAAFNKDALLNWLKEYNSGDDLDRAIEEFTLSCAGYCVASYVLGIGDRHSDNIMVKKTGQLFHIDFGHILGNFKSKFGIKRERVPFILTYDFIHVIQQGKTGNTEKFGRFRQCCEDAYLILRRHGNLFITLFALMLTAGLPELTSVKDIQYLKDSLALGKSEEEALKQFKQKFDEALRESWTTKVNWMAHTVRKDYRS

B1: mouse p85β-icSH2 (residues 423–722) (domain or fragment, UniProt O08908 423-722, looked up)
chain: QQDQVVKEDSIEAVGAQLKVYHQQYQDKSREYDQLYEEYTRTSQELQMKRTAIEAFNETIKIFEEQGQTQEKCSKEYLERFRREGNEKEMQRILLNSERLKSRIAEIHESRTKLEQDLRAQASDNREIDKRMNSLKPDLMQLRKIRDQYLVWLTQKGARQRKINEWLGIKNETEDQYSLMEDEDALPHHEERTWYVGKINRTQAEEMLSGKRDGTFLIRESSQRGCYACSVVVDGDTKHCVIYRTATGFGFAEPYNLYGSLKELVLHYQHASLVQHNDALTVTLAHPVRAPGPGPPSAAR
notes: No tag (pFastBac1); also called p85-icSH2; source: Sf9 cells, recombinant baculoviruses, coinfected with p110β; complex purified (HisTrap, Q-Sepharose, heparin, gel filtration)
With B1, the binding result was “binds”.
